The results in this text go back to publication PMC6018666, “Structural basis for terminal loop recognition and stimulation of pri-miRNA-18a processing by hnRNP A1”.

The target in data set [1] is T1, UP1 (hnRNP A1 RRM1-RRM2) (UniProt P09651 1-196). Description: ITC; not fitted by one-site model; ITC: 20 mM Na phosphate pH 6.5, 100 mM NaCl, no DTT, 25 C; EMSA: 100 mM KCl, 20% glycerol, 0.2 mM EDTA, 100 mM Tris pH 8.0, 0.5 mM DTT, 0.5 mM ATP, 20 mM creatine phosphate, 3.2 mM MgCl2, 4 C; footprint: 12 mM Tris-HCl pH 7.5, 48 mM NaCl, 1.2 mM MgCl2, 37 C. The settings on record: protein: recombinant; tags: His tag removed by TEV; hairpin.
T1 sequence (P09651 1-196): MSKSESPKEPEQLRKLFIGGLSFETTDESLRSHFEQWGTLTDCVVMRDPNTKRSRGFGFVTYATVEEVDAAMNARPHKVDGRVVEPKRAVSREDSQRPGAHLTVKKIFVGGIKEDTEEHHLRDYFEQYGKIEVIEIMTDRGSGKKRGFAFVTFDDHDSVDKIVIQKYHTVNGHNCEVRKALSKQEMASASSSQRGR

For data set [2], the target named is T1, UP1 (hnRNP A1 RRM1-RRM2). Description: ITC; N=1.07; ITC: 20 mM Na phosphate pH 6.5, 100 mM NaCl, no DTT, 25 C; EMSA: 100 mM KCl, 20% glycerol, 0.2 mM EDTA, 100 mM Tris pH 8.0, 0.5 mM DTT, 0.5 mM ATP, 20 mM creatine phosphate, 3.2 mM MgCl2, 4 C; footprint: 12 mM Tris-HCl pH 7.5, 48 mM NaCl, 1.2 mM MgCl2, 37 C. The settings on record: protein: recombinant, tags: His tag removed by TEV.

For another data set, the target named is UP1(R75E/R88E) (UniProt P09651 1-196, R75E;R88E). Description: ITC; N=1.1; ITC: 20 mM Na phosphate pH 6.5, 100 mM NaCl, no DTT, 25 C; EMSA: 100 mM KCl, 20% glycerol, 0.2 mM EDTA, 100 mM Tris pH 8.0, 0.5 mM DTT, 0.5 mM ATP, 20 mM creatine phosphate, 3.2 mM MgCl2, 4 C; footprint: 12 mM Tris-HCl pH 7.5, 48 mM NaCl, 1.2 mM MgCl2, 37 C. The note with it: protein: recombinant; tags: His tag removed by TEV; single strand.
UP1(R75E/R88E), sequence (P09651 1-196 R75E/R88E): as the sequence (P09651 1-196) above, with R75E, R88E counted along it

In data set [3] the target is T1, UP1 (hnRNP A1 RRM1-RRM2). Description: ITC; N=1.01; ITC: 20 mM Na phosphate pH 6.5, 100 mM NaCl, no DTT, 25 C; EMSA: 100 mM KCl, 20% glycerol, 0.2 mM EDTA, 100 mM Tris pH 8.0, 0.5 mM DTT, 0.5 mM ATP, 20 mM creatine phosphate, 3.2 mM MgCl2, 4 C; footprint: 12 mM Tris-HCl pH 7.5, 48 mM NaCl, 1.2 mM MgCl2, 37 C. The settings on record: protein: recombinant; tags: His tag removed by TEV; single strand.

The next data set addresses UP1(R75E/R88A) (UniProt P09651 1-196, R75E;R88A). Description: ITC; N=1.08; ITC: 20 mM Na phosphate pH 6.5, 100 mM NaCl, no DTT, 25 C; EMSA: 100 mM KCl, 20% glycerol, 0.2 mM EDTA, 100 mM Tris pH 8.0, 0.5 mM DTT, 0.5 mM ATP, 20 mM creatine phosphate, 3.2 mM MgCl2, 4 C; footprint: 12 mM Tris-HCl pH 7.5, 48 mM NaCl, 1.2 mM MgCl2, 37 C. The note with it: protein: recombinant; tags: His tag removed by TEV; single strand.

In data set [4] the target is T1, UP1 (hnRNP A1 RRM1-RRM2). Description: ITC; N=1.35; ITC: 20 mM Na phosphate pH 6.5, 100 mM NaCl, no DTT, 25 C; EMSA: 100 mM KCl, 20% glycerol, 0.2 mM EDTA, 100 mM Tris pH 8.0, 0.5 mM DTT, 0.5 mM ATP, 20 mM creatine phosphate, 3.2 mM MgCl2, 4 C; footprint: 12 mM Tris-HCl pH 7.5, 48 mM NaCl, 1.2 mM MgCl2, 37 C. The note with it: protein: recombinant; tags: His tag removed by TEV; hairpin.

The target of data set [5] is T2, hnRNP A1 RRM2 (UniProt P09651 94-196). Description: EMSA; ITC: 20 mM Na phosphate pH 6.5, 100 mM NaCl, no DTT, 25 C; EMSA: 100 mM KCl, 20% glycerol, 0.2 mM EDTA, 100 mM Tris pH 8.0, 0.5 mM DTT, 0.5 mM ATP, 20 mM creatine phosphate, 3.2 mM MgCl2, 4 C; footprint: 12 mM Tris-HCl pH 7.5, 48 mM NaCl, 1.2 mM MgCl2, 37 C. The settings on record: protein: recombinant; tags: His tag removed by TEV; label: internal radiolabel.
T2 sequence (P09651 94-196): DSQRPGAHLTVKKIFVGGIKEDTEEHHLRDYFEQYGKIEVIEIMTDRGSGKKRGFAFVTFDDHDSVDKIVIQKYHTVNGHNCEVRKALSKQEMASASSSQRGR

Data set [6] deals with T3, hnRNP A1 RRM1 (UniProt P09651 1-97). The data set is described as above. The settings on record: protein: recombinant; tags: His tag removed by TEV; label: internal radiolabel.
T3 sequence (P09651 1-97): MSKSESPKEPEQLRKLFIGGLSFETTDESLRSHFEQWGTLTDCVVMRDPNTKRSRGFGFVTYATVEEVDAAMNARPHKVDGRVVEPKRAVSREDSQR
Data set [7] addresses T1, UP1 (hnRNP A1 RRM1-RRM2). Described as above. The settings on record: protein: recombinant; tags: His tag removed by TEV; label: internal radiolabel.
Data set [8] concerns the target T1, UP1 (hnRNP A1 RRM1-RRM2). Description: ITC; N=1.08; ITC: 20 mM Na phosphate pH 6.5, 100 mM NaCl, no DTT, 25 C; EMSA: 100 mM KCl, 20% glycerol, 0.2 mM EDTA, 100 mM Tris pH 8.0, 0.5 mM DTT, 0.5 mM ATP, 20 mM creatine phosphate, 3.2 mM MgCl2, 4 C; footprint: 12 mM Tris-HCl pH 7.5, 48 mM NaCl, 1.2 mM MgCl2, 37 C. The settings on record: protein: recombinant; tags: His tag removed by TEV; single strand.

For data set [9], the target named is T1, UP1 (hnRNP A1 RRM1-RRM2). Description: ITC; N=1.06; ITC: 20 mM Na phosphate pH 6.5, 100 mM NaCl, no DTT, 25 C; EMSA: 100 mM KCl, 20% glycerol, 0.2 mM EDTA, 100 mM Tris pH 8.0, 0.5 mM DTT, 0.5 mM ATP, 20 mM creatine phosphate, 3.2 mM MgCl2, 4 C; footprint: 12 mM Tris-HCl pH 7.5, 48 mM NaCl, 1.2 mM MgCl2, 37 C. The note with it: protein: recombinant; tags: His tag removed by TEV; single strand.

The target in data set [10] is T1, UP1 (hnRNP A1 RRM1-RRM2). Description: ITC; N=0.98; ITC: 20 mM Na phosphate pH 6.5, 100 mM NaCl, no DTT, 25 C; EMSA: 100 mM KCl, 20% glycerol, 0.2 mM EDTA, 100 mM Tris pH 8.0, 0.5 mM DTT, 0.5 mM ATP, 20 mM creatine phosphate, 3.2 mM MgCl2, 4 C; footprint: 12 mM Tris-HCl pH 7.5, 48 mM NaCl, 1.2 mM MgCl2, 37 C. The note with it: protein: recombinant; tags: His tag removed by TEV; single strand.

Data set [11] has as its target T1, UP1 (hnRNP A1 RRM1-RRM2). Description: ITC; N=0.75; ITC: 20 mM Na phosphate pH 6.5, 100 mM NaCl, no DTT, 25 C; EMSA: 100 mM KCl, 20% glycerol, 0.2 mM EDTA, 100 mM Tris pH 8.0, 0.5 mM DTT, 0.5 mM ATP, 20 mM creatine phosphate, 3.2 mM MgCl2, 4 C; footprint: 12 mM Tris-HCl pH 7.5, 48 mM NaCl, 1.2 mM MgCl2, 37 C. The note with it: protein: recombinant; tags: His tag removed by TEV; single strand.

The target in data set [12] is T3, hnRNP A1 RRM1. Description: ITC; N=1.01; ITC: 20 mM Na phosphate pH 6.5, 100 mM NaCl, no DTT, 25 C; EMSA: 100 mM KCl, 20% glycerol, 0.2 mM EDTA, 100 mM Tris pH 8.0, 0.5 mM DTT, 0.5 mM ATP, 20 mM creatine phosphate, 3.2 mM MgCl2, 4 C; footprint: 12 mM Tris-HCl pH 7.5, 48 mM NaCl, 1.2 mM MgCl2, 37 C. The settings on record: protein: recombinant; tags: His tag removed by TEV; single strand.

Data set [13] addresses T2, hnRNP A1 RRM2. Description: ITC; N=1.09; text gives 6.9; ITC: 20 mM Na phosphate pH 6.5, 100 mM NaCl, no DTT, 25 C; EMSA: 100 mM KCl, 20% glycerol, 0.2 mM EDTA, 100 mM Tris pH 8.0, 0.5 mM DTT, 0.5 mM ATP, 20 mM creatine phosphate, 3.2 mM MgCl2, 4 C; footprint: 12 mM Tris-HCl pH 7.5, 48 mM NaCl, 1.2 mM MgCl2, 37 C. The note with it: protein: recombinant; tags: His tag removed by TEV; single strand.

UP1(R75E/R88A), sequence (P09651 1-196 R75E/R88A): as the sequence (P09651 1-196) above, with R75E, R88A counted along it

Take GGUGAAGUAGAUUAGCC (structured_RNA) [17-mer]: the binding result with UP1 (hnRNP A1 RRM1-RRM2) [1] is “binds”.
In the case of GGUGAAGUAGAUUCGCC (structured_RNA) [17-mer(A35C)], in the data set with UP1 (hnRNP A1 RRM1-RRM2) [2] (hairpin), the Kd amounted to 3100 ± 190 nM.
Take AGUAGAUUAGCA (ssRNA) [12-mer]: the Kd with UP1(R75E/R88E) stood at 40.1 ± 4.4 nM; in the data set with UP1 (hnRNP A1 RRM1-RRM2) [3] it was 15.5 ± 3.4 nM; with UP1(R75E/R88A), 19 ± 2.05 nM.

B1: pri-mir-18a 71-mer (structured_RNA)
RNA: GGUUCUAAGGUGCAUCUAGUGCAGAUAGUGAAGUAGAUUAGCAUCUACUGCCCUAAGUGCUCCUUCUGGCC
With B1, in the data set with UP1 (hnRNP A1 RRM1-RRM2) [4], the Kd was 148 ± 8.9 nM.
Take GUGAAGUAGAUUAGC (structured_RNA) [pri-mir-18a terminal loop RNA]: the binding result was “no binding” with hnRNP A1 RRM2 [5], “no binding” with hnRNP A1 RRM1 [6] and “binds” in the data set with UP1 (hnRNP A1 RRM1-RRM2) [7].
As to AGUAGAUUUUCA (ssRNA) [12-mer-mut2], in the data set with UP1 (hnRNP A1 RRM1-RRM2) [8], the Kd turned out to be 330 ± 26.5 nM.
For AGUUUAUUAGCA (ssRNA) [12-mer-mut1], in the data set with UP1 (hnRNP A1 RRM1-RRM2) [9], the Kd came to 154 ± 11 nM.
As to UUUAGAUUAGCA (ssRNA) [12-mer-mut3], the Kd in the data set with UP1 (hnRNP A1 RRM1-RRM2) [10] worked out at 8.33 ± 1.35 nM.
For UAGAUUAGCA (ssRNA) [10-mer], the Kd in the data set with UP1 (hnRNP A1 RRM1-RRM2) [2] (single strand) was 19.1 ± 6.73 nM.
For the molecule AGUAGAU (ssRNA) [7-mer], the Kd with UP1 (hnRNP A1 RRM1-RRM2) [11] turned out to be 3.4 ± 0.12 µM; in the data set with hnRNP A1 RRM1 [12], 20.4 ± 1.06 µM; with hnRNP A1 RRM2 [13], 6.8 ± 0.14 µM.
